Measurements as given in PMC10202398, “Nitrite reductase activity in F420-dependent sulphite reductase (Fsr) from Methanocaldococcus jannaschii” (Access Microbiology, 2023).

T1: MjFsrI (F420-dependent sulphite reductase, Fsr) (Methanocaldococcus jannaschii, UniProt Q58280)
T1 construct: native, purified from sulphite-grown Mj cells; untagged
T1 sequence (Q58280 1-620): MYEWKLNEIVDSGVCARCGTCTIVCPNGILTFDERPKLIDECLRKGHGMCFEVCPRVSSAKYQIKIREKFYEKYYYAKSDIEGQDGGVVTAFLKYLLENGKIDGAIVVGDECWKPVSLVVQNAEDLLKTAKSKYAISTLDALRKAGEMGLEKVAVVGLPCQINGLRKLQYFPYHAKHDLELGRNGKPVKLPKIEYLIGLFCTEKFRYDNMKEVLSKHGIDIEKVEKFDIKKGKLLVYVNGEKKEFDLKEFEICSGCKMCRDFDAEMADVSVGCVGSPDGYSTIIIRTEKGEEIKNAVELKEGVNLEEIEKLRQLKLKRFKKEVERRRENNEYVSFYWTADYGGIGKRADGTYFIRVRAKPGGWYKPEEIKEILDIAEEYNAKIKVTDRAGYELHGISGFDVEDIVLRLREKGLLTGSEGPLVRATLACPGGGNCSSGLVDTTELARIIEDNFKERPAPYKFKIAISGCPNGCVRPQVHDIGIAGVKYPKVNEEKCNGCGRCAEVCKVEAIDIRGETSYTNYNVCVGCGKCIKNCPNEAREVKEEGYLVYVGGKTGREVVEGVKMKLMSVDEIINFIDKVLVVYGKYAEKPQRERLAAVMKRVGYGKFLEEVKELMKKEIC

B1: MjFsrI (F420-dependent sulphite reductase, Fsr) (Methanocaldococcus jannaschii DSM 2661) (protein)
chain: MYEWKLNEIVDSGVCARCGTCTIVCPNGILTFDERPKLIDECLRKGHGMCFEVCPRVSSAKYQIKIREKFYEKYYYAKSDIEGQDGGVVTAFLKYLLENGKIDGAIVVGDECWKPVSLVVQNAEDLLKTAKSKYAISTLDALRKAGEMGLEKVAVVGLPCQINGLRKLQYFPYHAKHDLELGRNGKPVKLPKIEYLIGLFCTEKFRYDNMKEVLSKHGIDIEKVEKFDIKKGKLLVYVNGEKKEFDLKEFEICSGCKMCRDFDAEMADVSVGCVGSPDGYSTIIIRTEKGEEIKNAVELKEGVNLEEIEKLRQLKLKRFKKEVERRRENNEYVSFYWTADYGGIGKRADGTYFIRVRAKPGGWYKPEEIKEILDIAEEYNAKIKVTDRAGYELHGISGFDVEDIVLRLREKGLLTGSEGPLVRATLACPGGGNCSSGLVDTTELARIIEDNFKERPAPYKFKIAISGCPNGCVRPQVHDIGIAGVKYPKVNEEKCNGCGRCAEVCKVEAIDIRGETSYTNYNVCVGCGKCIKNCPNEAREVKEEGYLVYVGGKTGREVVEGVKMKLMSVDEIINFIDKVLVVYGKYAEKPQRERLAAVMKRVGYGKFLEEVKELMKKEIC
notes: native, purified from sulphite-grown Mj cells; untagged

What was measured:
[1] = biological target: T1, MjFsrI (F420-dependent sulphite reductase, Fsr); assay: non-degradative extraction from purified protein, reversed-phase HPLC; assay type: binding; settings: native co-purified flavin, 25 mM potassium phosphate pH 7
purified protein [2] = substrate: O=NO; assay: purified protein; assay type: biochemical, Methanocaldococcus jannaschii; settings: 40 µM F420H2, 5-150 µM nitrite, 100 mM potassium phosphate pH 7
purified protein [3] = substrate: NO; assay: purified protein; assay type: biochemical, Methanocaldococcus jannaschii; settings: 40 µM F420H2, 25-600 µM hydroxylamine, 100 mM potassium phosphate pH 7

Molecule | non-degradative extraction from purified protein, reversed-phase HPLC [1] | Km (purified protein [2]) [µM] | Km (purified protein [3]) [µM]
Cc1cc2nc3c(=O)[nH]c(=O)nc-3n(C[C@H](O)[C@H](O)[C@H](O)COP(=O)(O)OP(=O)(O)OC[C@H]3O[C@@H](n4cnc5c(N)ncnc54)[C@H](O)[C@@H]3O)c2cc1C [FAD] | Reversed-phase HPLC identified the flavin extracted from MjFsrI as FAD | – | –
B1 | – | 8.9 ± 0.9 | 112.4 ± 14.4
